Laboratory results taken from US12630600B2 (MEDIMMUNE LIMITED, priority 2022, dated 2026).
Starred links: 1 amine or outer side, 2 acyl side, 3 side chain; linkers in the order of their positions; H or OH if unused. Non-standard residues stand in square brackets, D forms with d. Groups on a side chain read outwards from the residue. No end group written: not given here. *: point of attachment. C20 diacid = O=C(O)CCCCCCCCCCCCCCCCCCC(=O)*; C18 diacid = O=C(O)CCCCCCCCCCCCCCCCC(=O)*; γGlu = O=C(O)[C@H](CCC(=O)[*:2])N[*:1]; αMeF = C[C@](N)(Cc1ccccc1)C(=O)O; AEEA = NCCOCCOCC(=O)O; Aib = CC(C)(N)C(=O)O

Legend:
human GLP-1 receptor = human GLP-1 receptor (human, UniProt P43220); experiment: cell-based or functional assay
human glucagon receptor = human glucagon receptor (human, UniProt P47871); experiment: cell-based or functional assay

Binder	cAMP production EC50 (human GLP-1 receptor)	cAMP production EC50 (human glucagon receptor)
H[Aib]QGTFTSDVSK[αMeF]LDRK([AEEA-AEEA-γGlu-γGlu-C18 diacid])RAQDFVRWLV[Aib]E-NH2 (N-terminus assumed; SMILES CC(C)C[C@H](NC(=O)[C@H](Cc1c[nH]c2ccccc12)NC(=O)[C@H](CCCNC(=N)N)NC(=O)[C@@H](NC(=O)[C@H](Cc1ccccc1)NC(=O)[C@H](CC(=O)O)NC(=O)[C@H](CCC(N)=O)NC(=O)[C@H](C)NC(=O)[C@H](CCCNC(=N)N)NC(=O)[C@H](CCCCNC(=O)COCCOCCNC(=O)COCCOCCNC(=O)CC[C@H](NC(=O)CC[C@H](NC(=O)CCCCCCCCCCCCCCCCC(=O)O)C(=O)O)C(=O)O)NC(=O)[C@H](CCCNC(=N)N)NC(=O)[C@H](CC(=O)O)NC(=O)[C@H](CC(C)C)NC(=O)[C@](C)(Cc1ccccc1)NC(=O)[C@H](CCCCN)NC(=O)[C@H](CO)NC(=O)[C@@H](NC(=O)[C@H](CC(=O)O)NC(=O)[C@H](CO)NC(=O)[C@@H](NC(=O)[C@H](Cc1ccccc1)NC(=O)[C@@H](NC(=O)CNC(=O)[C@H](CCC(N)=O)NC(=O)C(C)(C)NC(=O)[C@@H](N)Cc1c[nH]cn1)[C@@H](C)O)[C@@H](C)O)C(C)C)C(C)C)C(=O)N[C@H](C(=O)NC(C)(C)C(=O)N[C@@H](CCC(=O)O)C(N)=O)C(C)C) [Peptide 446]	0.0329 nM	0.366 nM
H[Aib]QGTFTSDVSK[αMeF]LDRK([AEEA-AEEA-γGlu-γGlu-C20 diacid])RAQDFVRWLV[Aib]E-NH2 (N-terminus assumed; SMILES CC(C)C[C@H](NC(=O)[C@H](Cc1c[nH]c2ccccc12)NC(=O)[C@H](CCCNC(=N)N)NC(=O)[C@@H](NC(=O)[C@H](Cc1ccccc1)NC(=O)[C@H](CC(=O)O)NC(=O)[C@H](CCC(N)=O)NC(=O)[C@H](C)NC(=O)[C@H](CCCNC(=N)N)NC(=O)[C@H](CCCCNC(=O)COCCOCCNC(=O)COCCOCCNC(=O)CC[C@H](NC(=O)CC[C@H](NC(=O)CCCCCCCCCCCCCCCCCCC(=O)O)C(=O)O)C(=O)O)NC(=O)[C@H](CCCNC(=N)N)NC(=O)[C@H](CC(=O)O)NC(=O)[C@H](CC(C)C)NC(=O)[C@](C)(Cc1ccccc1)NC(=O)[C@H](CCCCN)NC(=O)[C@H](CO)NC(=O)[C@@H](NC(=O)[C@H](CC(=O)O)NC(=O)[C@H](CO)NC(=O)[C@@H](NC(=O)[C@H](Cc1ccccc1)NC(=O)[C@@H](NC(=O)CNC(=O)[C@H](CCC(N)=O)NC(=O)C(C)(C)NC(=O)[C@@H](N)Cc1c[nH]cn1)[C@@H](C)O)[C@@H](C)O)C(C)C)C(C)C)C(=O)N[C@H](C(=O)NC(C)(C)C(=O)N[C@@H](CCC(=O)O)C(N)=O)C(C)C) [Peptide 447]	0.17 nM	0.667 nM
H[Aib]QGTFTSDVSK[αMeF]LDKK([AEEA-AEEA-γGlu-γGlu-C18 diacid])RARDFVRWLL[Aib]E-OH (N-terminus assumed; SMILES CC(C)C[C@H](NC(=O)[C@H](Cc1c[nH]c2ccccc12)NC(=O)[C@H](CCCNC(=N)N)NC(=O)[C@@H](NC(=O)[C@H](Cc1ccccc1)NC(=O)[C@H](CC(=O)O)NC(=O)[C@H](CCCNC(=N)N)NC(=O)[C@H](C)NC(=O)[C@H](CCCNC(=N)N)NC(=O)[C@H](CCCCNC(=O)COCCOCCNC(=O)COCCOCCNC(=O)CC[C@H](NC(=O)CC[C@H](NC(=O)CCCCCCCCCCCCCCCCC(=O)O)C(=O)O)C(=O)O)NC(=O)[C@H](CCCCN)NC(=O)[C@H](CC(=O)O)NC(=O)[C@H](CC(C)C)NC(=O)[C@](C)(Cc1ccccc1)NC(=O)[C@H](CCCCN)NC(=O)[C@H](CO)NC(=O)[C@@H](NC(=O)[C@H](CC(=O)O)NC(=O)[C@H](CO)NC(=O)[C@@H](NC(=O)[C@H](Cc1ccccc1)NC(=O)[C@@H](NC(=O)CNC(=O)[C@H](CCC(N)=O)NC(=O)C(C)(C)NC(=O)[C@@H](N)Cc1c[nH]cn1)[C@@H](C)O)[C@@H](C)O)C(C)C)C(C)C)C(=O)N[C@@H](CC(C)C)C(=O)NC(C)(C)C(=O)N[C@@H](CCC(=O)O)C(=O)O) [Peptide 448]	0.0531 nM	0.029 nM
H[Aib]QGTFTSDVSK[αMeF]LDTK([AEEA-AEEA-γGlu-γGlu-C20 diacid])RARDFVQWLLE[Aib]G-OH (N-terminus assumed; SMILES CC(C)C[C@H](NC(=O)[C@H](Cc1c[nH]c2ccccc12)NC(=O)[C@H](CCC(N)=O)NC(=O)[C@@H](NC(=O)[C@H](Cc1ccccc1)NC(=O)[C@H](CC(=O)O)NC(=O)[C@H](CCCNC(=N)N)NC(=O)[C@H](C)NC(=O)[C@H](CCCNC(=N)N)NC(=O)[C@H](CCCCNC(=O)COCCOCCNC(=O)COCCOCCNC(=O)CC[C@H](NC(=O)CC[C@H](NC(=O)CCCCCCCCCCCCCCCCCCC(=O)O)C(=O)O)C(=O)O)NC(=O)[C@@H](NC(=O)[C@H](CC(=O)O)NC(=O)[C@H](CC(C)C)NC(=O)[C@](C)(Cc1ccccc1)NC(=O)[C@H](CCCCN)NC(=O)[C@H](CO)NC(=O)[C@@H](NC(=O)[C@H](CC(=O)O)NC(=O)[C@H](CO)NC(=O)[C@@H](NC(=O)[C@H](Cc1ccccc1)NC(=O)[C@@H](NC(=O)CNC(=O)[C@H](CCC(N)=O)NC(=O)C(C)(C)NC(=O)[C@@H](N)Cc1c[nH]cn1)[C@@H](C)O)[C@@H](C)O)C(C)C)[C@@H](C)O)C(C)C)C(=O)N[C@@H](CC(C)C)C(=O)N[C@@H](CCC(=O)O)C(=O)NC(C)(C)C(=O)NCC(=O)O) [Peptide 449]	0.207 nM	0.242 nM
H[Aib]QGTFTSDVSK[αMeF]LDKK([AEEA-AEEA-γGlu-γGlu-C18 diacid])RAQDFVRWLLE[Aib]G-OH (N-terminus assumed; SMILES CC(C)C[C@H](NC(=O)[C@H](Cc1c[nH]c2ccccc12)NC(=O)[C@H](CCCNC(=N)N)NC(=O)[C@@H](NC(=O)[C@H](Cc1ccccc1)NC(=O)[C@H](CC(=O)O)NC(=O)[C@H](CCC(N)=O)NC(=O)[C@H](C)NC(=O)[C@H](CCCNC(=N)N)NC(=O)[C@H](CCCCNC(=O)COCCOCCNC(=O)COCCOCCNC(=O)CC[C@H](NC(=O)CC[C@H](NC(=O)CCCCCCCCCCCCCCCCC(=O)O)C(=O)O)C(=O)O)NC(=O)[C@H](CCCCN)NC(=O)[C@H](CC(=O)O)NC(=O)[C@H](CC(C)C)NC(=O)[C@](C)(Cc1ccccc1)NC(=O)[C@H](CCCCN)NC(=O)[C@H](CO)NC(=O)[C@@H](NC(=O)[C@H](CC(=O)O)NC(=O)[C@H](CO)NC(=O)[C@@H](NC(=O)[C@H](Cc1ccccc1)NC(=O)[C@@H](NC(=O)CNC(=O)[C@H](CCC(N)=O)NC(=O)C(C)(C)NC(=O)[C@@H](N)Cc1c[nH]cn1)[C@@H](C)O)[C@@H](C)O)C(C)C)C(C)C)C(=O)N[C@@H](CC(C)C)C(=O)N[C@@H](CCC(=O)O)C(=O)NC(C)(C)C(=O)NCC(=O)O) [Peptide 450]	0.0573 nM	0.0578 nM
H[Aib]QGTFTSDVSK[αMeF]LDKK([AEEA-AEEA-γGlu-C20 diacid])RARDFVLWLL[Aib]E-NH2 (N-terminus assumed; SMILES CC(C)C[C@H](NC(=O)[C@H](Cc1c[nH]c2ccccc12)NC(=O)[C@H](CC(C)C)NC(=O)[C@@H](NC(=O)[C@H](Cc1ccccc1)NC(=O)[C@H](CC(=O)O)NC(=O)[C@H](CCCNC(=N)N)NC(=O)[C@H](C)NC(=O)[C@H](CCCNC(=N)N)NC(=O)[C@H](CCCCNC(=O)COCCOCCNC(=O)COCCOCCNC(=O)CC[C@H](NC(=O)CCCCCCCCCCCCCCCCCCC(=O)O)C(=O)O)NC(=O)[C@H](CCCCN)NC(=O)[C@H](CC(=O)O)NC(=O)[C@H](CC(C)C)NC(=O)[C@](C)(Cc1ccccc1)NC(=O)[C@H](CCCCN)NC(=O)[C@H](CO)NC(=O)[C@@H](NC(=O)[C@H](CC(=O)O)NC(=O)[C@H](CO)NC(=O)[C@@H](NC(=O)[C@H](Cc1ccccc1)NC(=O)[C@@H](NC(=O)CNC(=O)[C@H](CCC(N)=O)NC(=O)C(C)(C)NC(=O)[C@@H](N)Cc1c[nH]cn1)[C@@H](C)O)[C@@H](C)O)C(C)C)C(C)C)C(=O)N[C@@H](CC(C)C)C(=O)NC(C)(C)C(=O)N[C@@H](CCC(=O)O)C(N)=O) [Peptide 451]	0.895 nM	0.503 nM
H[Aib]QGTFTSDVSK[αMeF]LDKK([AEEA-AEEA-γGlu-C20 diacid])RALDFVRWLL[Aib]E-NH2 (N-terminus assumed; SMILES CC(C)C[C@H](NC(=O)[C@H](C)NC(=O)[C@H](CCCNC(=N)N)NC(=O)[C@H](CCCCNC(=O)COCCOCCNC(=O)COCCOCCNC(=O)CC[C@H](NC(=O)CCCCCCCCCCCCCCCCCCC(=O)O)C(=O)O)NC(=O)[C@H](CCCCN)NC(=O)[C@H](CC(=O)O)NC(=O)[C@H](CC(C)C)NC(=O)[C@](C)(Cc1ccccc1)NC(=O)[C@H](CCCCN)NC(=O)[C@H](CO)NC(=O)[C@@H](NC(=O)[C@H](CC(=O)O)NC(=O)[C@H](CO)NC(=O)[C@@H](NC(=O)[C@H](Cc1ccccc1)NC(=O)[C@@H](NC(=O)CNC(=O)[C@H](CCC(N)=O)NC(=O)C(C)(C)NC(=O)[C@@H](N)Cc1c[nH]cn1)[C@@H](C)O)[C@@H](C)O)C(C)C)C(=O)N[C@@H](CC(=O)O)C(=O)N[C@@H](Cc1ccccc1)C(=O)N[C@H](C(=O)N[C@@H](CCCNC(=N)N)C(=O)N[C@@H](Cc1c[nH]c2ccccc12)C(=O)N[C@@H](CC(C)C)C(=O)N[C@@H](CC(C)C)C(=O)NC(C)(C)C(=O)N[C@@H](CCC(=O)O)C(N)=O)C(C)C) [Peptide 452]	0.495 nM	0.151 nM
H[Aib]QGTFTSDVSK[αMeF]LDKK([AEEA-AEEA-γGlu-C20 diacid])RAQDFVRWLLE[Aib]G-NH2 [Peptide 453]	0.17 nM	0.162 nM
